Assay results taken from doi:10.1101/2020.05.27.119388 (bioRxiv, 2020).

Molecular target: MYC-LRRK2 (leucine rich repeat kinase 2), wild type (human, UniProt Q5S007 1-2527)
Experiment: co-IP

Chain of MYC-LRRK2 (leucine rich repeat kinase 2), wild type (Q5S007 whole entry): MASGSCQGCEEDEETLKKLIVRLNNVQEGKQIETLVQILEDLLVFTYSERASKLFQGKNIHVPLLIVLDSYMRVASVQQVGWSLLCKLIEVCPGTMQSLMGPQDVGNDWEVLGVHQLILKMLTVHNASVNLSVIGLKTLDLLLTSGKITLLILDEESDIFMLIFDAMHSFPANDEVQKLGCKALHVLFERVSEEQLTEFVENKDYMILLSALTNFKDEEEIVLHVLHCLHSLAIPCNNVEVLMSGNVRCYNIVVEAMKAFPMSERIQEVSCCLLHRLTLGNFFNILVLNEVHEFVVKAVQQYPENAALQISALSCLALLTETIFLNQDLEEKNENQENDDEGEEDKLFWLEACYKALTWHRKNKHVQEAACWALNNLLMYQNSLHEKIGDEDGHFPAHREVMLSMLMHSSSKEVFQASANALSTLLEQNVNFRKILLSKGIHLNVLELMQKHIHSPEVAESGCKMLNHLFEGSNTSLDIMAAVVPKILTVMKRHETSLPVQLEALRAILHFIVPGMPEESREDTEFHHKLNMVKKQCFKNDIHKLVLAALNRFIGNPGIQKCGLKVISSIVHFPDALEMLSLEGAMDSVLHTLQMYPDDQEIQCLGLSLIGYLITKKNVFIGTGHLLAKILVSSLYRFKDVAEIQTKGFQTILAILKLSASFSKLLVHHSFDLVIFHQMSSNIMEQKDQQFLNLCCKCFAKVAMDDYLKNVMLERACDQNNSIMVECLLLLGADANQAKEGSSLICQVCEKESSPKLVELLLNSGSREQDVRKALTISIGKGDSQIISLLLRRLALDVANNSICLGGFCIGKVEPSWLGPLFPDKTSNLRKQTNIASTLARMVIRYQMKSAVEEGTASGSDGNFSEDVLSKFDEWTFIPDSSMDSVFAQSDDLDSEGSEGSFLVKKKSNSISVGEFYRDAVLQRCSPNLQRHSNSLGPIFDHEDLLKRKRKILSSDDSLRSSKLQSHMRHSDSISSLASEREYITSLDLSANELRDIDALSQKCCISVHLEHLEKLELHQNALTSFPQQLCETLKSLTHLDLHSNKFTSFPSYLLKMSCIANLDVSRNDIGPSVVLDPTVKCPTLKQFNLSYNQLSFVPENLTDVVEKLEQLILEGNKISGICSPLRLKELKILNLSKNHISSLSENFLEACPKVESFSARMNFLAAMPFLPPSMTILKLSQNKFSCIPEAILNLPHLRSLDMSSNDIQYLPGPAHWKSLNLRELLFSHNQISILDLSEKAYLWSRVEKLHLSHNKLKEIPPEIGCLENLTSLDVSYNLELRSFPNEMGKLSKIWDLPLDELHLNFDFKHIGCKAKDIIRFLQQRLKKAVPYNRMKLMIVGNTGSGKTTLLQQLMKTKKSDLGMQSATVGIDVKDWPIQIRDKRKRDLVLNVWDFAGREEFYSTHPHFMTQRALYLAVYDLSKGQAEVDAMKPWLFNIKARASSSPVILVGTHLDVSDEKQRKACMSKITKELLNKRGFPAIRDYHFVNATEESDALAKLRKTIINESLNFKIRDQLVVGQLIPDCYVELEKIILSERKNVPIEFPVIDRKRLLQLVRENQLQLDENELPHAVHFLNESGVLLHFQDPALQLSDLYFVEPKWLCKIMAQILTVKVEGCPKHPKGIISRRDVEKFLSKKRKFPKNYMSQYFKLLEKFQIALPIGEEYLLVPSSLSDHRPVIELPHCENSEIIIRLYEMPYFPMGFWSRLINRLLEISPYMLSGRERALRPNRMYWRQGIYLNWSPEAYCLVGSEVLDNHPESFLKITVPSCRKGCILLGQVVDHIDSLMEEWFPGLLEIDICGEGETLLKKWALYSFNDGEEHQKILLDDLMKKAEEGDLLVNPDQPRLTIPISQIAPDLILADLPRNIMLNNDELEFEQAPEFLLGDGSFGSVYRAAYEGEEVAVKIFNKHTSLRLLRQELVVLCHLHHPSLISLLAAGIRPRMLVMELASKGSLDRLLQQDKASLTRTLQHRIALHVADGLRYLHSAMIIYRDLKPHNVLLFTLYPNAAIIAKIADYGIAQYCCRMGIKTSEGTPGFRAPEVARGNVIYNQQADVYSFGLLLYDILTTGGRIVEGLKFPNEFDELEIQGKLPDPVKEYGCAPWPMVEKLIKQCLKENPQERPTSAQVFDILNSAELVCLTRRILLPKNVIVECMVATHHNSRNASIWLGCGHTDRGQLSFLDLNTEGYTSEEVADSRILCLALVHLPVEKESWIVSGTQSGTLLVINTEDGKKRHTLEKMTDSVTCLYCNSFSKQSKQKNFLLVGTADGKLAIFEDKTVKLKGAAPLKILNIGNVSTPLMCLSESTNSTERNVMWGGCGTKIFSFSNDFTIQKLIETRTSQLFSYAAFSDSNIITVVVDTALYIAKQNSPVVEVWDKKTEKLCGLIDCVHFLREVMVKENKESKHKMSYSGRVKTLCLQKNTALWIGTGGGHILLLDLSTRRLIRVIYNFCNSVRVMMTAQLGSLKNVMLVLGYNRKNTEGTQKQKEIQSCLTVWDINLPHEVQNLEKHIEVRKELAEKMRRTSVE

B1: GST-AP2M1, recombinant (natural protein)
chain: MIGGLFIYNHKGEVLISRVYRDDIGRNAVDAFRVNVIHARQQVRSPVTNIARTSFFHVKRSNIWLAAVTKQNVNAAMVFEFLYKMCDVMAAYFGKISEENIKNNFVLIYELLDEILDFGYPQNSETGALKTFITQQGIKSQHQTKEEQSQITSQVTGQIGWRREGIKYRRNELFLDVLESVNLLMSPQGQVLSAHVSGRVVMKSYLSGMPECKFGMNDKIVIEKQGKGTADETSKSGKQSIAIDDCTFHQCVRLSKFDSERSISFIPPDGEFELMRYRTTKDIILPFRVIPLVREVGRTKLEVKVVIKSNFKPSLLAQKIEVRIPTPLNTSGVQVICMKGKAKYKASENAIVWKIKRMAGMKESQISAEIELLPTNDKKKWARPPISMNFEVPFAPSGLKVRYLKVFEPKLNYSDHDVIKWVRYIGRSGIYETRC
Does B1 bind?
Result: binds
